Assay results as given in the nanobody polyreactivity screen of Harvey et al. (2022).

Experiment: yeast display, Sf9 membrane polyspecificity reagent, FACS + sequencing; frameworks hold sequencing errors
Method in brief: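 After 36–48 hours of galactose induction, yeast (Saccharomyces cerevisiae BJ5465) displaying a synthetic nanobody library were stained at 4 °C for 1 hour with 10% biotinylated, detergent-solubilized Sf9 membrane reagent. Streptavidin microbeads enriched the stained cells before FACS sorting into low and high (top ~1%) gates on anti-HA and streptavidin fluorescence. Each clone's polyreactivity label reflects its gate of origin.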

| Sequence | polyreactivity (PSR sort gate) |
| --- | --- |
| QVQLVESGGGLVQAGGSLRLSCAASGRIFIYNAMGWYRPAPGKERELVAAINRSGVSTHYADSVKGRFTISRDNEKNTVYLQMNSLKPEDTAVYYCARTVYGARSYDYWGQGTQVTVSS | low polyreactivity |
| QVQLVESGGGLVKSGGSLRLSCAASGGTFKPNVMGWYIQAPGKERELVAAITSGGSTYYADSVKGRFTISRDNAKNTVYLQMNSLKPEDTAVYYCAASSLRRYGYNYWGQVTQVTVSS | high polyreactivity |
| QDQHVESGGGLVQAGGSLRLSCAAYGSTFLYYAMGWFRQAPGKERELVAAITSGGSTYYADSVKGRFTISRDNPKNTVFLQMNRLKPEDTAVYYCTVFGYGYWGQGTQVTVSS | high polyreactivity |
| QVQLVESGGGLVQAGGSLRLSCAASGYTFTVYPMGGYRPAPGKERELVAAIRDGSSTNYADSVKGRFTISRDNAKNTVYLQMISLKPEDTAVYYCNAYSQSWNFYGDGDYWGQGTQVTVSS | low polyreactivity |
| QVQLQESGGGLVQAGGSLSLSCAASGSNFVSVTMGWYRQAHGKERELVASIGRGSTTNHADSVKGRFTISRDNAKNIVYLLMNSLKPEDTAVYYCAALESYGKYHGYWGQGTQVTVSS | low polyreactivity |
| QVQLVESGGGLVQAGGSLRLSCAASGSILYFNAMGWYRQAPGKEREFVATIRRSGGSTNYADSVKGRFTISRDNAKNTVYLQMNSVKREDTAVYYCNARLSSGYTSWRYNYWGQGTQVSVSS | high polyreactivity |
| QVQLVESGGGLVQAGGSLRLSCAASGSIFSYNAMGWYRQAPGKERELVAAITWSGGSTYYADSVKGRFTISRDNAKNTVYLQMNSLKPEDTAVYDCAAKGGYSTVRPTYTKFNYWGLGTQVTVSS | high polyreactivity |
| QVQLVESGGGLVQAGGSLRLSCAASGSIIPPNAMGWYRQAPGKERELVAGISSGGSTTYADSVKGRFTISRDNAKNTVYLQMNSLKPEDTAVYYCAADVPYGASIISYDYWGQGTQVTVSS | low polyreactivity |
| QVQLVESGGGLVQAGGSLSLSCAASGRIFGYYAMGGYRQAPGKERELVAAITTGGNTYYAESVKGRFTISRDNAKNTVNLQMNSLKPEDTAVYYCNKRSYAYYSYAVFTWVDYWGQGTQVTVSS | low polyreactivity |
| QDHLVESGGGLVQAGGSLRLTCAASGSIFISYAMGWYRQAPGKERELVAAISIRGTRTYYADSVKGRFTISRDNAKNTVSLQMNSLKPEDTAVYFCAADASYTEGMDYWGQGTQVTVSS | high polyreactivity |
| QVQLVESGGGLVQAGGSLRLSCAASGSIFNGYVMGWYRQAPGKERELVAAISGSGGRTYYADSVKGRFTISRDNAKNTVYLQMNSLKPEDTAVYYCAAYPDLRDSRRIRYGYNYWGQGTQVTVSS | high polyreactivity |
| QVLLVESGGGLVQAGGSLRLSCAASGRTFRGNAMGWYRQAPGKERELVAAISRSGGTTYYADSVKGRFTISRYNAKNTVYLQMNSLKPEDTAVYYCNRGWATWHGPDDYWGQGTQVTVSS | high polyreactivity |
| QVQLVESGGGLVQARGSLRLSCAASGRIFGNNAKGWYRQAPGKARELVAAIRRGGSTYYADSVKGRFTISRDNAKITVYLQMNSLKPEETAVYYCAADSSRKHFYWGQGTQVTVSS | high polyreactivity |
| QVQLVESGVGLVQAGGSLRLSCAASGRIFNSYAMGWYRQAPGKERELVAAISRNGGITYYADSVKGRFTISRDNAKNTVYLQMNSLKPEDTAVYYCAADGLTPKAIWTSDYWGQGTQVTVSS | high polyreactivity |
| QVQLVESGGGVVQAGGSLRLSCPASGSIFETYVMGWYRPAPGIERELVAAINSGGSTNYADSVKGRFTISRDNAKNTVYLQMNRLKPEDTAVYYCNADWFTPAQPWYRSFIRYDYWGQGTQVTVSS | low polyreactivity |
| QVQLVESGGGLVQAGGSLRLSCAASGITFLDYTMGWYRQAPGKERELVATISKSGGSTYYADSVKGRFTISRDNAKNTVYLQMNSLKPEDTAVYYCAARGFTFWRYYYWGQGTQVTVSS | high polyreactivity |
| QVQLVESGGGLVQAGGSLRLSCAASGYTFTGYAMGWYRQAPGKERELVAAITSIGGSTYYADSVKGRFTISRDNAKNTVYLQMNSLKPEDTAVYYCAAEGDYVYDMDYWGQGTQVTVSS | low polyreactivity |
| QVQHVESGGGVVQAGGSLRLSCAASGIIFPRNALGWYRQAPGKERELVAAIRSSGGTTYYADSVKGRFTISRDNAKNTVYLQMNSLKPEDTAVFYCAAVTTSKFNYWGQGTQVTVSS | low polyreactivity |
| QVQLVESGGGLLRAGGSLRLICADSAFVNYVMGWYRQAPGKERELVAAISKGGGRTYYADSVKGRFTISRDNAKNTVYLQMNSLKPEVTAVYYCNADGGLPKYDYWGQGTQVTVSS | high polyreactivity |
| QVQLVESGGGLVQAGGSLRLSCAASGRIFYSYAMGWYRQAPGKERELVATISRRGGSTYYADSVKGRFTISRDNAKITVYLQMNSLKPEDTAVYYCNKGIPTRSVRSYDYWGQGTQVTVSS | high polyreactivity |
| QVQLVESGGGLVQAGGSLRLSCAASGFIFRYYAMGWYRQAPGKERELVADISWSGGSTHYADSVKGRFTISRDNAKNTVYLQMNSQKPEDTAVYYCAADPTLYSSWSTYYRSNYWGQGTQVTVSS | high polyreactivity |
